According to paper PMC6128732:
pKd: −log10 of the molar value.

Biological target: Biotinylated Xenopus laevis XRCC4-Avitag (Xenopus laevis)
Experiment: BLI

- pKd: 6.55
Substance: Xenopus laevis XLF^1-226 (C-terminally truncated XLF) (from UniProt A0A1L8ENT6 1-226) (domain or fragment)
